Patent publication US20110239311

Key:
[1] = test system: GST-NR2F6 fusion protein, wild-type, full-length (purified recombinant)
[2] = test system: GST-NR2F6 fusion protein, S83A mutant, full-length
[3] = test system: GST-NR2F6 fusion protein, S89A mutant, full-length
Sequence of GST-NR2F6 fusion protein, S89A mutant, full-length (chain, as listed by the source S89A): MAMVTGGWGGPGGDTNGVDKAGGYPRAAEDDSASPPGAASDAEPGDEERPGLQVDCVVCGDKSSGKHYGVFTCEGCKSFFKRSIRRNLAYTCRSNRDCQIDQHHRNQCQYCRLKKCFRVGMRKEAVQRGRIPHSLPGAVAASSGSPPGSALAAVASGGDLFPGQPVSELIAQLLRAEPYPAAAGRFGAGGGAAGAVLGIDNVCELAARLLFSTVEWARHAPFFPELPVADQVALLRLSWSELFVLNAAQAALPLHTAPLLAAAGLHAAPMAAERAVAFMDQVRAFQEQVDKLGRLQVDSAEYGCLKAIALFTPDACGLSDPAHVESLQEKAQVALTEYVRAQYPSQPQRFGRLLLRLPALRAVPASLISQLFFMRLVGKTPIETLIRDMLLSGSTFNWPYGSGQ

Sequence of GST-NR2F6 fusion protein, S83A mutant, full-length (chain, as listed by the source S83A): as the sequence (chain, as listed by the source S89A) above, with S83A, A89S counted along it
Sequence of GST-NR2F6 fusion protein, wild-type, full-length (purified recombinant) (chain, as listed by the source): as the sequence (chain, as listed by the source S89A) above, with A89S counted along it
Sequence of recombinant PKCtheta (Q04759 whole entry): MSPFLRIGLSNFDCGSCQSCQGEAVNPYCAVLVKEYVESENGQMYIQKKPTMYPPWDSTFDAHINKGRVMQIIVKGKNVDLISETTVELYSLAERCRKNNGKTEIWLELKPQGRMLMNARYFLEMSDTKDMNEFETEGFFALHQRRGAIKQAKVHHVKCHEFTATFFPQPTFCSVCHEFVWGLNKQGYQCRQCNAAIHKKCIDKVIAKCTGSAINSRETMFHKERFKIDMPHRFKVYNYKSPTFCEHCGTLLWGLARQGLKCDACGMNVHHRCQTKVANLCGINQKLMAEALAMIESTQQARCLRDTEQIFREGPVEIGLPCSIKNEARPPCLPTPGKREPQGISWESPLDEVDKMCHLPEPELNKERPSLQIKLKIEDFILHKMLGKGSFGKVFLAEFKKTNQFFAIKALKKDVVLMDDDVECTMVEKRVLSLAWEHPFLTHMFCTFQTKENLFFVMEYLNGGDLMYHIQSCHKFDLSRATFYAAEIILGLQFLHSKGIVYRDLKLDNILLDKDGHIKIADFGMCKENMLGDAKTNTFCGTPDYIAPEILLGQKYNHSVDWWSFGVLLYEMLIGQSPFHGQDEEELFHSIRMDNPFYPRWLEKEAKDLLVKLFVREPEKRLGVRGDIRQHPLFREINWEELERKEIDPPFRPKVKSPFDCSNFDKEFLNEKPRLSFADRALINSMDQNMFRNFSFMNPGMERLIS

| Substance | in vitro protein kinase assay (32P incorporation into GST-NR2F6) [1] | in vitro protein kinase assay (32P incorporation into GST-NR2F6) [2] | in vitro protein kinase assay (32P incorporation into GST-NR2F6) [3] |
| --- | --- | --- | --- |
| Protein kinase A (PKA) | (but not PKCzeta or PKA) were able to phosphorylate recombinant NR2F6 in vitro |  |  |
| recombinant PKCalpha | PKCalpha, delta and theta (but not PKCzeta or PKA) were able to phosphorylate recombinant NR2F6 in vitro | This phosphorylation was lost after the predicted phosphorylation site at Ser-83 (but not at Ser-89) was mutated in the full-length NR2F6 protein | This phosphorylation was lost after the predicted phosphorylation site at Ser-83 (but not at Ser-89) was mutated in the full-length NR2F6 protein |
| recombinant PKCdelta | PKCalpha, delta and theta (but not PKCzeta or PKA) were able to phosphorylate recombinant NR2F6 in vitro | This phosphorylation was lost after the predicted phosphorylation site at Ser-83 (but not at Ser-89) was mutated in the full-length NR2F6 protein | This phosphorylation was lost after the predicted phosphorylation site at Ser-83 (but not at Ser-89) was mutated in the full-length NR2F6 protein |
| recombinant PKCtheta | PKCalpha, delta and theta (but not PKCzeta or PKA) were able to phosphorylate recombinant NR2F6 in vitro | This phosphorylation was lost after the predicted phosphorylation site at Ser-83 (but not at Ser-89) was mutated in the full-length NR2F6 protein | This phosphorylation was lost after the predicted phosphorylation site at Ser-83 (but not at Ser-89) was mutated in the full-length NR2F6 protein |
